Assay results published in the RNAGym collection of RNA variant scans (doi:10.1093/molbev/msab373).

B1: Azoarcus group I ribozyme (parent)
chain: GUGCCUUGCGCCGGGAAACCACGCAAGGGAUGGUGUCAAAUUCGGCGAAACCUAAGCGCCCGCCCGGGCGUAUGGCAACGCCGAGCCAAGCUUCGGCGCCUGCGCCGAUGAAGGUGUAGAGACUAGACGGCACCCACCUAAGGCAAACGCUAUGGUGAAGGCAUAGUCCAGGGAGUGGCGAAAGUCACACAAACCGG

Variants of: B1
Assay: reverse-splicing fitness (ratio to wild type); higher = more active; in vitro selection; Mg2+ level not given
Method in brief: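 An in vitro group I ribozyme library with randomized positions was T7-transcribed and gel-purified. In triplicate, 10 pmol RNA in EPPS pH 7.5 was reacted with 50 pmoles of a 30-nt RNA substrate for 1 h at 37 °C across several added MgCl2 levels (1–48 mM), then stopped with EDTA. Products were reverse transcribed from a substrate-complementary primer, PCR-amplified and sequenced (HiSeq 4000). Fitness is a variant's read proportion after selection over that before, normalised to wild type.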

| Variant | reverse-splicing fitness |
| --- | --- |
| C82A A111G A120G C150U C169U U176C | 0.0179 |
| C82A A111G A120G C150U C169U U176A | 0.023 |
| C82A A111G A120G C150U C169U U176G | 0.00738 |
| C82A A111G A120U A145G C150U C169A U176A | 0.00727 |
| C82A A111G A120U A145G C150U C169A U176C | 0.0045 |
| C82A A111G A120U A145G C150U C169A U176G | 0.00232 |
| C82A A111G A120U C150G | 0.00849 |
| C82A A111G A120U C150A | 0.00855 |
| C82A A111G A120U A145U C169A U176C | 0.00249 |
| C82A A111G A120U A145U C169A U176A | 0.00218 |
| C82A A111G A120U A145U C169A U176G | 0.00145 |
| C82A A111G A120U C150G C169A U176C | 0.00609 |
| C82A A111G A120U C150G C169A U176A | 0.00738 |
| C82A A111G A120U C150G C169A U176G | 0.0031 |
| C82A A111G A120G C150A C169G U176G | 0.00613 |
| C82A A111G A120G C150A C169G U176A | 0.0211 |
| C82A A111G A120G C150A C169G U176C | 0.0245 |
| C82A A111G A120G C150G C169A U176A | 0.0117 |
| C82A A111G A120G C150G C169A U176G | 0.00672 |
| C82A A111G A120G C150G C169A U176C | 0.0123 |
| C82A A111G A120G C150U C169A | 0.00952 |

| Variant | reverse-splicing fitness |
| --- | --- |
| C82A A111G A120G C150U C169G | 0.0108 |
| C82A A111G A120G C150U C169U | 0.0102 |
| C82A A111G A120U A145U C150U C169U | 0.00376 |
| C82A A111G A120U A145U C150U C169G | 0.00324 |
| C82A A111G A120U A145U C150U C169A | 0.00329 |
| C82A A111G A120U A145G C150G C169U U176C | 0.00796 |
| C82A A111G A120U A145G C150G C169U U176A | 0.00739 |
| C82A A111G A120U A145G C150G C169U U176G | 0.00328 |
| C82A A111G A120G A145U C150U C169A U176A | 0.0141 |
| C82A A111G A120G A145U C150U C169A U176G | 0.00488 |
| C82A A111G A120G A145U C150U C169A U176C | 0.0116 |
| C82A A111G A120U A145U C150U | 0.0232 |
| C82A A111G A120U A145U C150A | 0.00648 |
| C82A A111G A120U A145U C150G | 0.00746 |
| C82A A111G A120U A145C C150U C169A | 0.00248 |
| C82A A111G A120U A145C C150U C169U | 0.00308 |
| C82A A111G A120U A145C C150U C169G | 0.00298 |
| C82A A111G A120U A145G C150G C169G U176G | 0.00316 |
| C82A A111G A120U A145G C150G C169G U176C | 0.00646 |
| C82A A111G A120U A145G C150G C169G U176A | 0.00925 |
| C82A A111G A120U A145C C150A C169U U176G | 0.00212 |

| Variant | reverse-splicing fitness |
| --- | --- |
| C82A A111G A120U A145C C150A C169U U176A | 0.00351 |
| C82A A111G A120U A145C C150A C169U U176C | 0.00198 |
| C82A A111G A120G A145U C150G U176G | 0.00378 |
| C82A A111G A120G A145U C150G U176C | 0.00837 |
| C82A A111G A120G A145U C150G U176A | 0.00605 |
| C82A A111G A120G C169U U176G | 0.00531 |
| C82A A111G A120G C169U U176A | 0.0208 |
| C82A A111G A120G C169U U176C | 0.0183 |
| C82A A111G A120U A145G | 0.0318 |
| C82A A111G A120U A145C | 0.027 |
| C82A A111G A120U A145U | 0.0342 |
| C82A A111G A120U C150A C169A U176A | 0.00499 |
| C82A A111G A120U C150A C169A U176G | 0.00194 |
| C82A A111G A120U C150A C169A U176C | 0.00319 |
| C82A A111G A120G C150G | 0.00686 |
| C82A A111G A120G C150U | 0.0127 |
| C82A A111G A120G C150A | 0.0105 |
| C82A A111G A120U A145U C150A C169A U176A | 0.00224 |
| C82A A111G A120U A145U C150A C169A U176G | 0.00187 |
| C82A A111G A120U A145U C150A C169A U176C | 0.00213 |
| C82A A111G A120U A145C C150A C169G U176C | 0.00235 |

| Variant | reverse-splicing fitness |
| --- | --- |
| C82A A111G A120U A145C C150A C169G U176G | 0.00149 |
| C82A A111G A120U A145C C150A C169G U176A | 0.00315 |
| C82A A111G A120G A145U C150G C169U U176C | 0.0132 |
| C82A A111G A120G A145U C150G C169U U176G | 0.00483 |
| C82A A111G A120G A145U C150G C169U U176A | 0.012 |
| C82A A111G A120U A145G C150U | 0.0257 |
| C82A A111G A120U A145G C150G | 0.00855 |
| C82A A111G A120U A145G C150A | 0.00991 |
| C82A A111G A120G A145U U176C | 0.0167 |
| C82A A111G A120G A145U U176A | 0.0131 |
| C82A A111G A120G A145U U176G | 0.00583 |
| C82A A111G A120U A145C C169G U176A | 0.00249 |
| C82A A111G A120U A145C C169G U176G | 0.00175 |
| C82A A111G A120U A145C C169G U176C | 0.00189 |
| C82A A111G A120U A145G C150G C169A U176A | 0.0108 |
| C82A A111G A120U A145G C150G C169A U176C | 0.00953 |
| C82A A111G A120U A145G C150G C169A U176G | 0.00369 |
| C82A A111G A120U A145C C169A | 0.00203 |
| C82A A111G A120U A145C C169U | 0.00349 |
| C82A A111G A120U A145C C169G | 0.00315 |
